Columns and labels:
[1] = target: intact ZIKV particles (ZIKV envelope protein) (Zika virus); experiment: direct ELISA on coated intact ZIKV particles (10-fold dilutions), antibody 1 ug/ml, anti-mouse IgG-HRP; FPLR fit
[2] = target: intact ZIKV particles (ZIKV envelope protein) (Zika virus); experiment: direct ELISA on coated intact ZIKV particles (10-fold dilutions), antibody 1 ug/ml, anti-mouse IgG-HRP; LOD = blank + 3 SD
[3] = target: intact ZIKV particles (ZIKV envelope protein) (Zika virus); experiment: direct ELISA on coated intact ZIKV particles (10-fold dilutions), biotinylated peptide 20 uM, streptavidin-HRP; FPLR fit
[4] = target: intact ZIKV particles (ZIKV envelope protein) (Zika virus); experiment: direct ELISA on coated intact ZIKV particles (10-fold dilutions), biotinylated peptide 20 uM, streptavidin-HRP; LOD = blank + 3 SD
[5] = target: intact ZIKV particles (ZIKV envelope protein) (Zika virus); experiment: direct ELISA on coated intact ZIKV particles, mono-arm peptide 20 uM in urine (1:1) or serum (1:10); data not shown
[6] = target: intact ZIKV particles (ZIKV envelope protein) (Zika virus); experiment: direct ELISA on coated intact ZIKV particles (10-fold dilutions), biotinylated peptide 2 uM, streptavidin-HRP; LOD = blank + 3 SD
[7] = target: intact ZIKV particles (ZIKV envelope protein) (Zika virus); experiment: direct ELISA on coated intact ZIKV particles (10-fold dilutions), biotinylated peptide 2 uM, streptavidin-HRP; FPLR fit
[8] = target: intact ZIKV particles (ZIKV envelope protein) (Zika virus); experiment: direct ELISA on coated intact ZIKV particles (10-fold dilutions), biotinylated peptide 0.5 uM, streptavidin-HRP; LOD = blank + 3 SD
[9] = target: intact DENV-3 particles (Dengue virus serotype 3); experiment: direct ELISA, plates coated with 10^5 copies/mL of intact virus particles
[10] = target: intact DENV-2 particles (Dengue virus serotype 2); experiment: as above
[11] = target: intact DENV-1 particles (Dengue virus serotype 1); experiment: as above
[12] = target: intact ZIKV particles (ZIKV envelope protein) (Zika virus); experiment: direct ELISA on coated intact ZIKV particles (10-fold dilutions), biotinylated peptide 0.5 uM, streptavidin-HRP; FPLR fit
[13] = target: intact ZIKV particles (ZIKV envelope protein) (Zika virus); experiment: direct ELISA on coated intact ZIKV particles (10-fold dilutions), biotinylated peptide 5 uM, streptavidin-HRP; LOD = blank + 3 SD
[14] = target: intact ZIKV particles (ZIKV envelope protein) (Zika virus); experiment: direct ELISA on coated intact ZIKV particles (10-fold dilutions), biotinylated peptide 5 uM, streptavidin-HRP; FPLR fit

antibody 4G2 hybridoma mouse IgG2a
FPLR C50 (log[ZIKV], copies/mL) [1]: 6.2
FPLR minimum [1]: 0.04 ΔA
LOD (log[ZIKV], copies/mL) [2]: 5.8

CLRGHA (maleimide-PEG2-biotin on the N-terminal cysteine) [mono-arm peptide P2]
FPLR C50 (log[ZIKV], copies/mL) [3]: 6.2
FPLR minimum [3]: 0.04 ΔA
LOD (log[ZIKV], copies/mL) [4]: 4.5
lowest ZIKV concentration detected in urine or serum [5]: 1e+06 copies/mL

CKRNATP (maleimide-PEG2-biotin on the N-terminal cysteine) [mono-arm peptide X1]
FPLR C50 (log[ZIKV], copies/mL) [3]: 6.1
FPLR minimum [3]: 0.03 ΔA
LOD (log[ZIKV], copies/mL) [4]: 4.8
lowest ZIKV concentration detected in urine or serum [5]: 1e+07 copies/mL

WPHTQGPGCCGPGSWPGQ (designed binder, maleimide-PEG2-biotin on the cysteines of the bridge (thioether)) [clamp peptide C1]
LOD (log[ZIKV], copies/mL) [6]: 4.8
FPLR C50 (log[ZIKV], copies/mL) [7]: 6.3
FPLR minimum [7]: 0.03 ΔA

WPHTQGPGCCGPGLRGHA (designed binder, maleimide-PEG2-biotin on the cysteines of the bridge (thioether)) [clamp peptide C2]
LOD (log[ZIKV], copies/mL) [6]: 4.5
FPLR C50 (log[ZIKV], copies/mL) [7]: 6.2
FPLR minimum [7]: 0.05 ΔA

WPWIGTGPGCCGPGKRNATP (designed binder, maleimide-PEG2-biotin on the cysteines of the bridge (thioether)) [clamp peptide C3]
LOD (log[ZIKV], copies/mL) [8]: 3.5
signal decrease against the ZIKV signal [9]: 70%
signal decrease against the ZIKV signal [10]: 70%
signal decrease against the ZIKV signal [11]: 70%
FPLR C50 (log[ZIKV], copies/mL) [12]: 5.3
FPLR minimum [12]: 0.05 ΔA

WPWIGTGPGCCGPGKTDAYS (designed binder, maleimide-PEG2-biotin on the cysteines of the bridge (thioether)) [clamp peptide C4]
LOD (log[ZIKV], copies/mL) [6]: 5.7
FPLR C50 (log[ZIKV], copies/mL) [7]: 6.3
FPLR minimum [7]: 0.02 ΔA

AGRRPGPGCCGPGSWPGQ (designed binder, maleimide-PEG2-biotin on the cysteines of the bridge (thioether)) [clamp peptide C5]
LOD (log[ZIKV], copies/mL) [13]: 5.8
FPLR C50 (log[ZIKV], copies/mL) [14]: 6.4
FPLR minimum [14]: 0.01 ΔA

AGRRPGPGCCGPGLRGHA (designed binder, maleimide-PEG2-biotin on the cysteines of the bridge (thioether)) [clamp peptide C6]
LOD (log[ZIKV], copies/mL) [8]: 3.5
signal decrease against the ZIKV signal [9]: 55%
signal decrease against the ZIKV signal [10]: 45%
FPLR C50 (log[ZIKV], copies/mL) [12]: 5.2
FPLR minimum [12]: 0.05 ΔA

MDSPIKGPGCCGPGKRNATP (designed binder, maleimide-PEG2-biotin on the cysteines of the bridge (thioether)) [clamp peptide C7]
signal decrease against the ZIKV signal [9]: 70%
signal decrease against the ZIKV signal [10]: 70%
signal decrease against the ZIKV signal [11]: 70%
LOD (log[ZIKV], copies/mL) [13]: 3.7
FPLR C50 (log[ZIKV], copies/mL) [14]: 5.8
FPLR minimum [14]: 0.01 ΔA

MDSPIKGPGCCGPGKTDAYS (designed binder, maleimide-PEG2-biotin on the cysteines of the bridge (thioether)) [clamp peptide C8]
LOD (log[ZIKV], copies/mL) [13]: 4.7
FPLR C50 (log[ZIKV], copies/mL) [14]: 6.2
FPLR minimum [14]: 0.03 ΔA

CSWPGQ (maleimide-PEG2-biotin on the N-terminal cysteine) [mono-arm peptide P1]
LOD (log[ZIKV], copies/mL) [4]: 6.8

CKTDAYS (maleimide-PEG2-biotin on the N-terminal cysteine) [mono-arm peptide X2]
FPLR C50 (log[ZIKV], copies/mL) [3]: 6.1
FPLR minimum [3]: 0.01 ΔA
LOD (log[ZIKV], copies/mL) [4]: 5.8
